Laboratory results taken from patent publication US20130041017A1, “SIRNA-BASED THERAPY OF FIBRODYPLASIA OSSIFICANS PROGRESSIVA (FOP)” (The Trustees of the University of Pennsylvania, published 2013).

Molecular target: T1, ACVR1 Arg206His mutant (R206H; c.617G>A), mutated Activin A type I receptor protein (human)
T1 chain: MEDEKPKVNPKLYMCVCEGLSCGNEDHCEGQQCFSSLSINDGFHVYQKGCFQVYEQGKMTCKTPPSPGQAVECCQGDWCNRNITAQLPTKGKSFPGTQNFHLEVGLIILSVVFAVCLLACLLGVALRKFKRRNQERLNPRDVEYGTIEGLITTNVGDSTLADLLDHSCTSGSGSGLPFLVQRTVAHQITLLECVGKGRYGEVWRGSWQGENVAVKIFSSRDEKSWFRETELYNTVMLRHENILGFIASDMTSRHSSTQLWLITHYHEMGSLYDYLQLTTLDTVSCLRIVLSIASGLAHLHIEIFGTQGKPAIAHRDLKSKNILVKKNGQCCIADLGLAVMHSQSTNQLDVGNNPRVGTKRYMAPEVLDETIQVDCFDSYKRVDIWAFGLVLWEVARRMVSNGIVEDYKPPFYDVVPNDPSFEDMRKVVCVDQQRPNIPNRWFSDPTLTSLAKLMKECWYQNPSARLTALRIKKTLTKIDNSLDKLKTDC
Test: cell-based or functional assay

B1: Human recombinant BMP4 (ligand)
chain: SPKHHSQRARKKNKNCRRHSLYVDFSDVGWNDWIVAPPGYQAFYCHGDCPFPLADHLNSTNHAIVQTLVNSVNSSIPKACCVPTELSAISMLYLDEYDKVVLKNYQEMVVEGCGCR
  phosphorylated Smad1/5/8 (pSmad1/5/8) by immunoblotting: ~2 fold
